# Assay results: the supplement of paper PMC10065799, “High-throughput profiling of sequence recognition by tyrosine kinases and SH2 domains using bacterial peptide display” (eLife, 2023)
# Tested on: c-Src
# Experiment: phosphorylation enrichment, bacterial display (enrichment ratio); higher = better substrate or ligand; peptides without Tyr show the background
# 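Wherever SH2 binding enrichment of the phosphorylated peptide, bacterial display is given: peptide library displayed on the E. coli surface as eCPX fusions, selected cells deep-sequenced, score is each peptide's frequency after selection divided by its frequency in the input.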
# 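Wherever phosphorylation enrichment, bacterial display is given: 11-residue human phosphosite peptides and single-mutation variants displayed on the E. coli surface, counted by deep sequencing, each peptide's frequency after selection divided by its frequency in the unselected input library; frequency after pTyr selection over input frequency; kinase dosed for 20-30% of maximal phosphorylation in three min.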
row,Sequence,phosphorylation enrichment
1,EQLGEYKFQNA [ALB_Y425],0.367
2,QITQVCGFFDE [PPP2CA_Y127_Y127C_YF],0.599
3,RHTRSYDFTEG [FGF7_Y56_M59T_YF],0.351
4,RLSVDYSKKSK [TUBA3E_Y161],0.36
5,LDFNEYFRGLN [HPRT1_Y198_D201G_YF],0.595
6,NFFDTCIKTCL [IQGAP2_Y1445_Y1445C_YF],0.521
7,IGDENYGEGSS [ACO2_Y665],0.522
8,GIVEEYQLPFF [BMPR1A_Y453_YF],0.746
9,MCITRYERESQ [PRNP_Y218_Q217R],0.404
10,KREPQYSSHSS [SIPA1L3_Y1265_G1261R],0.506
11,TTKGSYSLSVR [HCK_Y180],0.568
12,AAYNKYDQERF [CDC73_Y293_R292K],0.398
13,VSFGEYRFRSV [CFTR_Y515_D513G_YF],0.489
14,LAARFYNWVCF [FLT4_Y1231_S1235C_YF],1.21
15,CTTVHYNFMCN [TP53_Y234_I232V_YF],0.499
16,FSPFDYQPCLA [TNS1_Y798_YF],0.57
17,WFQTKYEELQV [KRT6B_Y360_I365V_YF],0.329

row,Sequence,phosphorylation enrichment
1,LPKDLYLISQM [LARP4_Y141_S137P],0.788
2,KLNNEHLELNY [MME_Y497_Y497H],0.417
3,CTTTHYNYMCN [TP53_Y234_I232T],0.424
4,CEAMEYPESKQ [BTK_Y511_L512P],0.548
5,RARPPYTVAAD [ANKZF1_Y572],0.349
6,MANYMYKAGPS [MAML2_Y515],0.556
7,GQLIVYAPPEW [CNTN6_Y315_F314V],1.75
8,KVASVYEAPGF [NT5C_Y65],5.05
9,LKMLVYLDMSK [LRRC7_Y234],0.441
10,QSSALYEDHFL [ASS1_Y83_R86H_YF],2.12
11,HFGCIYHGTLL [MET_Y1093_V1092I],4.15
12,ERTIEYLEEVA [HADHA_Y239],0.521
13,FKEVVYQAMEE [TACC3_Y684_E680K],2.88
14,DGQVNYEGFVQ [CALM1_Y139_E141G],0.603
15,TVHPGYGFLSE [PCCA_Y143_A138T],0.566
16,ASFPLYEPAKM [MKI67_Y340],2.97

# Biological target: Grb2 SH2 (UniProt P62993)
# Experiment: SH2 binding enrichment of the phosphorylated peptide, bacterial display (enrichment ratio); higher = better substrate or ligand; peptides without Tyr show the background
row,Sequence,SH2 binding enrichment
1,EQLGEYKFQNA [ALB_Y425],0.793
2,RHTRSYDFTEG [FGF7_Y56_M59T_YF],0.88
3,LDFNEYFRGLN [HPRT1_Y198_D201G_YF],1.17
4,NFFDTCIKTCL [IQGAP2_Y1445_Y1445C_YF],1.15
5,IGDENYGEGSS [ACO2_Y665],0.814
6,GIVEEYQLPFF [BMPR1A_Y453_YF],0.799
7,TTKGSYSLSVR [HCK_Y180],0.876
8,AAYNKYDQERF [CDC73_Y293_R292K],0.923
9,VSFGEYRFRSV [CFTR_Y515_D513G_YF],0.792
10,LAARFYNWVCF [FLT4_Y1231_S1235C_YF],1.04
11,CEAMEYPESKQ [BTK_Y511_L512P],0.976
12,RARPPYTVAAD [ANKZF1_Y572],1.27
13,GQLIVYAPPEW [CNTN6_Y315_F314V],0.984
14,QSSALYEDHFL [ASS1_Y83_R86H_YF],0.809
15,ERTIEYLEEVA [HADHA_Y239],0.774
16,DGQVNYEGFVQ [CALM1_Y139_E141G],0.659

# Second part, the sequence after the results:
row,SH2 binding enrichment,Sequence
1,1.03,QITQVCGFFDE [PPP2CA_Y127_Y127C_YF]
2,0.894,RLSVDYSKKSK [TUBA3E_Y161]
3,1.07,MCITRYERESQ [PRNP_Y218_Q217R]
4,0.973,KREPQYSSHSS [SIPA1L3_Y1265_G1261R]
5,1.61,CTTVHYNFMCN [TP53_Y234_I232V_YF]
6,0.756,FSPFDYQPCLA [TNS1_Y798_YF]
7,0.891,WFQTKYEELQV [KRT6B_Y360_I365V_YF]
8,1.02,LPKDLYLISQM [LARP4_Y141_S137P]
9,0.934,KLNNEHLELNY [MME_Y497_Y497H]
10,0.951,CTTTHYNYMCN [TP53_Y234_I232T]
11,0.887,MANYMYKAGPS [MAML2_Y515]
12,0.948,KVASVYEAPGF [NT5C_Y65]
13,0.757,LKMLVYLDMSK [LRRC7_Y234]
14,0.758,HFGCIYHGTLL [MET_Y1093_V1092I]
15,0.774,FKEVVYQAMEE [TACC3_Y684_E680K]
16,0.941,TVHPGYGFLSE [PCCA_Y143_A138T]
17,0.889,ASFPLYEPAKM [MKI67_Y340]

# Biological target: SHP2-C SH2
# Experiment: as above
row,Sequence,SH2 binding enrichment
1,EQLGEYKFQNA [ALB_Y425],0.416
2,RHTRSYDFTEG [FGF7_Y56_M59T_YF],0.611
3,LDFNEYFRGLN [HPRT1_Y198_D201G_YF],1.08
4,NFFDTCIKTCL [IQGAP2_Y1445_Y1445C_YF],1.06
5,IGDENYGEGSS [ACO2_Y665],0.86
6,GIVEEYQLPFF [BMPR1A_Y453_YF],0.629
7,TTKGSYSLSVR [HCK_Y180],0.664
8,AAYNKYDQERF [CDC73_Y293_R292K],0.863
9,VSFGEYRFRSV [CFTR_Y515_D513G_YF],0.9
10,LAARFYNWVCF [FLT4_Y1231_S1235C_YF],0.982
11,CEAMEYPESKQ [BTK_Y511_L512P],0.728
12,RARPPYTVAAD [ANKZF1_Y572],1.14
13,GQLIVYAPPEW [CNTN6_Y315_F314V],0.767
14,QSSALYEDHFL [ASS1_Y83_R86H_YF],1.13
15,ERTIEYLEEVA [HADHA_Y239],0.637
16,DGQVNYEGFVQ [CALM1_Y139_E141G],0.467

# Continued, values first:
row,SH2 binding enrichment,Sequence
1,0.587,QITQVCGFFDE [PPP2CA_Y127_Y127C_YF]
2,0.526,RLSVDYSKKSK [TUBA3E_Y161]
3,0.784,MCITRYERESQ [PRNP_Y218_Q217R]
4,0.885,KREPQYSSHSS [SIPA1L3_Y1265_G1261R]
5,2.38,CTTVHYNFMCN [TP53_Y234_I232V_YF]
6,0.657,FSPFDYQPCLA [TNS1_Y798_YF]
7,1.08,WFQTKYEELQV [KRT6B_Y360_I365V_YF]
8,0.795,LPKDLYLISQM [LARP4_Y141_S137P]
9,0.734,KLNNEHLELNY [MME_Y497_Y497H]
10,3.73,CTTTHYNYMCN [TP53_Y234_I232T]
11,0.787,MANYMYKAGPS [MAML2_Y515]
12,0.906,KVASVYEAPGF [NT5C_Y65]
13,0.721,LKMLVYLDMSK [LRRC7_Y234]
14,0.548,HFGCIYHGTLL [MET_Y1093_V1092I]
15,0.994,FKEVVYQAMEE [TACC3_Y684_E680K]
16,0.962,TVHPGYGFLSE [PCCA_Y143_A138T]
17,0.707,ASFPLYEPAKM [MKI67_Y340]

# Biological target: c-Src SH2
# Experiment: as above
row,Sequence,SH2 binding enrichment
1,EQLGEYKFQNA [ALB_Y425],0.518
2,RHTRSYDFTEG [FGF7_Y56_M59T_YF],0.427
3,LDFNEYFRGLN [HPRT1_Y198_D201G_YF],0.862
4,NFFDTCIKTCL [IQGAP2_Y1445_Y1445C_YF],1.01
5,IGDENYGEGSS [ACO2_Y665],0.449
6,GIVEEYQLPFF [BMPR1A_Y453_YF],0.438
7,TTKGSYSLSVR [HCK_Y180],0.51
8,AAYNKYDQERF [CDC73_Y293_R292K],0.58
9,VSFGEYRFRSV [CFTR_Y515_D513G_YF],0.528
10,LAARFYNWVCF [FLT4_Y1231_S1235C_YF],1.02
11,CEAMEYPESKQ [BTK_Y511_L512P],0.66
12,RARPPYTVAAD [ANKZF1_Y572],0.933
13,GQLIVYAPPEW [CNTN6_Y315_F314V],0.53
14,QSSALYEDHFL [ASS1_Y83_R86H_YF],0.48
15,ERTIEYLEEVA [HADHA_Y239],0.513
16,DGQVNYEGFVQ [CALM1_Y139_E141G],0.586

# Further lines, results first:
row,SH2 binding enrichment,Sequence
1,0.521,QITQVCGFFDE [PPP2CA_Y127_Y127C_YF]
2,0.387,RLSVDYSKKSK [TUBA3E_Y161]
3,0.705,MCITRYERESQ [PRNP_Y218_Q217R]
4,0.549,KREPQYSSHSS [SIPA1L3_Y1265_G1261R]
5,2.66,CTTVHYNFMCN [TP53_Y234_I232V_YF]
6,0.496,FSPFDYQPCLA [TNS1_Y798_YF]
7,8.95,WFQTKYEELQV [KRT6B_Y360_I365V_YF]
8,0.406,LPKDLYLISQM [LARP4_Y141_S137P]
9,0.573,KLNNEHLELNY [MME_Y497_Y497H]
10,10.6,CTTTHYNYMCN [TP53_Y234_I232T]
11,0.485,MANYMYKAGPS [MAML2_Y515]
12,0.645,KVASVYEAPGF [NT5C_Y65]
13,0.531,LKMLVYLDMSK [LRRC7_Y234]
14,0.58,HFGCIYHGTLL [MET_Y1093_V1092I]
15,0.918,FKEVVYQAMEE [TACC3_Y684_E680K]
16,0.433,TVHPGYGFLSE [PCCA_Y143_A138T]
17,0.535,ASFPLYEPAKM [MKI67_Y340]
